Test results as given in PMC6242907, “Molecular basis of maintaining an oxidizing environment under anaerobiosis by soluble fumarate reductase” (Nature Communications, 2018).

Assays:
Assay in all cases: purified protein
Type in all cases: biochemical, Saccharomyces cerevisiae
purified protein [1] = substrate: Cc1cc2c(cc1C)N(C[C@H](O)[C@H](O)[C@H](O)CO)c1[nH]c(=O)[nH]c(=O)c1N2; details: printed as riboflavin, reduced in situ by excess sodium dithionite; fumarate as acceptor, anaerobic, PBS, 1 mM EDTA
purified protein [2] = substrate: Cc1cc2c(cc1C)N(C[C@H](O)[C@H](O)[C@H](O)COP(=O)(O)O)c1[nH]c(=O)[nH]c(=O)c1N2; details: printed as FMN, reduced in situ by excess sodium dithionite; fumarate as acceptor, anaerobic, PBS, 1 mM EDTA
purified protein [3] = substrate: Cc1cc2c(cc1C)N(C[C@H](O)[C@H](O)[C@H](O)COP(=O)(O)OP(=O)(O)OC[C@H]1O[C@@H](n3cnc4c(N)ncnc43)[C@H](O)[C@@H]1O)c1[nH]c(=O)[nH]c(=O)c1N2; details: printed as FAD, reduced in situ by excess sodium dithionite; fumarate as acceptor, anaerobic, PBS, 1 mM EDTA

B1: Osm1 (Saccharomyces cerevisiae S288C) (protein)
chain: SMKQPVVVIGSGLAGLTTSNRLISKYRIPVVLLDKAASIGGNSIKASSGINGAHTDTQQNLKVMDTPELFLKDTLHSAKGRGVPSLMDKLTKESKSAIRWLQTEFDLKLDLLAQLGGHSVPRTHRSSGKLPPGFEIVQALSKKLKDISSKDSNLVQIMLNSEVVDIELDNQGHVTGVVYMDENGNRKIMKSHHVVFCSGGFGYSKEMLKEYSPNLIHLPTTNGKQTTGDGQKILSKLGAELIDMDQVQVHPTGFIDPNDRENNWKFLAAEALRGLGGILLHPTTGRRFTNELSTRDTVTMEIQSKCPKNDNRALLVMSDKVYENYTNNINFYMSKNLIKKVSINDLIRQYDLQTTASELVTELKSYSDVNTKDTFDRPLIINAFDKDISTESTVYVGEVTPVVHFTMGGVKINEKSQVIKKNSESVLSNGIFAAGEVSGGVHGANRLGGSSLLECVVFGKTAADNIAKLY
notes: residues 32-501, N-terminal His6 tag and thrombin site in pET28a, E. coli BL21(DE3); tag removed by trypsin for crystals
- Km (purified protein [1]): 9.3745 (±4.991) µM
- Km (purified protein [2]): 5.847 (±2.0065) µM
- Km (purified protein [3]): 2.858 µM
